Measured values: ChEMBL document CHEMBL2074192, “Functional analysis and androgen-regulated expression of mouse organic anion transporting polypeptide 1 (Oatp1) in the kidney” (Biochim Biophys Acta, 2001)

Assays:
[1] = substrate: C[C@]12CC[C@@H]3c4ccc(O)cc4CC[C@H]3[C@@H]1CC[C@@H]2O[C@@H]1O[C@H](C(=O)O)[C@@H](O)[C@H](O)[C@H]1O; assay: (§1) TP_TRANSPORTER: uptake in Xenopus laevis oocytes; format: functional, cell-based, Oocyte
[2] = substrate: [H][C@@]12CC=C3C[C@@H](OS(=O)(=O)O)CC[C@]3(C)[C@@]1([H])CC[C@]1(C)C(=O)CC[C@@]21[H]; assay: as §1; format: functional, cell-based, Oocyte

B1: Solute carrier organic anion transporter family member 1A1 (Mus musculus) (protein)
chain: MEETEKKVATQEGRFFSKMKVFLMSLTCAYLAKSLSGVYMNSMLTQIERQFGIPTSVVGFITGSFEIGNLLLIVFVSYFGRKLHRPIIIGVGCVVMGLGCFLMASPHFLMGRYKYETTISPTSNLSSNSFLCIENRTQTLKPTQDPTECVKEIKSLMWIYVLIGNTMRGIGETPIMPLGISYIEDFAKSENSPLYIGILEMGKIVGPIIGLLLGSFFARVYVDIGSVNTDDLTITPTDTRWVGAWWIGFLVCAGVNILTSIPFFFFPKTLPKKELQDNVDVTKYEKVEKHRERAKKENLGITKDFLPFMKSLCCNPIYMLFSLTSVLQINGFASTFTFLPKYLEQQYGKSTSEAVFLIGVYSLPPVCLGYLISGFIMKKFKITVKKAAYIAFGLSLSEYFIFLCNYLLTCDNFPVAGLTTSYKGVQHPLYGEKNVLADCNTRCSCLTDTWDPVCGDNGLAYMSACLAGCEKSVGTGTNMVFQNCSCIGSSGNSSAVLGLCKKGPECDNKLQYFLIKSVFSSFIFSLAAIPGYMVLLRCVKSEEKSIGVGLHAFFIRLLAGIPAPVYFGALIDRTCLHWGTLKCGQPGACRMYDINRFRHIYLGLPAAVRGSSFLPAVFILILMRKFHFPGDIHSPDTELAEMKLTEKESECTDVCRSPKVENDGELKTKL
Question: For B1, which Km [1] is on record?
Answer: 8.2 µM

Question: And the Km [2]?
Answer: 8.2 µM
